Data from patent US20070031855A1 (UNIVERSITY OF WYOMING, published 2007).

Biological target: CryIAb toxin of Bacillus thuringiensis (Bacillus thuringiensis, UniProt P0A370 29-607, 125I-labeled (probe in blots and in the cell binding assay; the unlabeled toxin was the competitor))

B1: Recombinant BT-R1 protein expressed from the BT-R1 cDNA in pcDNA3 in mammalian cells (receptor)
chain: QERCGYMTAIPRLPRPDNLPVLNFEGQTWSQRPLLPAPERDDLCMDAYHVITANLGTQVIYMDEEIEDEITIAILNYNGPSTPFIELPFLSGSYNLLMPVIRRVDNGEWHLIITQRQHYELPGMQQYMFNVRVDGQSLVAGVSLAIVNIDDNAPIIQNFEPCRVPELGEPGLTECTYQVSDADGRISTEFMTFRIDSVRGDEETFYIERTNIPNQWMWLNMTIGVNTSLNFVTSPLHIFSVTALDSLPNTHTVTMMVQVANVNSRPPRWLEIFAVQQFEEKSYQNFTVRAIDGDTEINMPINYRLITNEEDTFFSIEALPGGKSGAVFLVSPIDRDTLQREVFPLTIVAYKYDEEAFSTSTNVVIIVTDINDQRPEPIHKEYRLAIMEETPLTLNFDKEFGFHDKDLGQNAQYTVRLESVDPPGAAEAFYIAPEVGYQRQTFIMGTLNHSMLDYEVPEFQSITIRVVATDNNDTRHVGVALVHIDLINWNDEQPIFEHAVQTVTFDETEGEGFFVAKAVAHDRDIGDVVEHTLLGNAVNFLTIDKLTGDIRVSANDSFNYHRESELFVQVRATDTLGEPFHTATSQLVIRLNDINNTPPTLRLPRGSPQVEENVPDGHVITQELRATDPDTTADLRFEINWDTSFATKQGRQANPDEFRNCVEIETIFPEINNRGLAIGRVVAREIRHNVTIDYEEFEVLSLTVRVRDLNTVYGDDYDESMLTITIIDMNDNAPVWVEGTLEQNFRVREMSAGGLVVGSVRADDIDGPLYNQVRYTIFPREDTDKDLIMIDFLTGQISVNTSGAIDADTPPRFHLYYTVVASDRCSTEDPADCPPDPTYWETEGNITIHITDTNNKVPQAETTKFDTVVYIYENATHLDEVVTLIASDLDRDEIYHTVSYVINYAVNPRLMNFFSVNRETGLVYVDYETQGSGEVLDRDGDEPTHRIFFNLIDNFMGEGEGNRNQNDTEVLVILLDVNDNAPELPPPSELSWTISENLKQGVRLEPHIFAPDRDEPDTDNSRVGYEILNLSTERDIEVPELFVMIQIANVTGELETAMDLKGYWGTYAIHIRAFDHGIPQMSMNETYELIIHPFNYYAPEFVFPTNDAVIRLARERAVINGVLATVNGEFLERISATDPDGLHAGVVTFQVVGDEESQRYFQVVNDGENLGSLRLLQAVPEEIREFRITIRATDQGTDPGPLSTDMTFRVVFVPTQGEPRFASSEHAVAFIEKSAGMEESHQLPLAQDIKNHLCEDDCHSIYYRIIDGNSEGHFGLDPVRNRLFLKKELIREQSASHTLQVAASNSPDGGIPLPASILTVTVTVREADPRPVFVRELYTAGISTADSIGRELLRLHATQSEGSAITYAIDYDTMVVDPSLEAVRQSAFVLNAQTGVLTLNIQPTATMHGLFKFEVTATDTAGAQDRTDVTVYVVSSQNRVYFVFVNTLQQVEDNRDFIADTFSAGFNMTCNIDQVVPANDPVTGVALEHSTQMRGHFIRDNVPVLADEIEQIRSDLVLLSSIQTTLAARSLVLQDLLTNSSPDSAPDSSLTVYVLASLSAVLGFMCLVLLLTFIIRTRALNRRLEALSMTKYGSLDSGLNRAGIAAPGTNKHTVEGSNPIFNEAIKTPDLDAISEGSNDSDLIGIEDLPHFGNVFMDPEVNEKANGYPEVANHNNNFAFNPTPFSPEFVNGQFRKI
modifications: N-glycosylated (210 kD)
Question: For B1, which Kd is on record?
Answer: Its Kd is 1.01 nM.
